Values belong to the substance of their own block, whether it stands above or below them.
Key:
CaiT-M295E (E. coli) = CaiT-M295E (E. coli) (UniProt P31553); experiment: native gel or EMSA; blue native PAGE, 4–16.5% gradient gel, 5 µg purified protein per lane, in detergent solution
[1] = test system: T1, C[N+](C)(C)C[C@H](O)CC(=O)O; experiment: purified protein; format: biochemical, Escherichia coli; conditions: labelled compound, proteoliposomes preloaded with 10 mM L-carnitine, potassium phosphate pH 7.5, 25 °C
T1 construct: full-length with C-terminal 6His tag (pET21a), expressed in E. coli JW0039 (delta caiT), Ni-NTA purified; homotrimer (D288A and D288R mostly monomeric); DDM-solubilized or in proteoliposomes

CaiT-R299A (E. coli) = CaiT-R299A (E. coli) (UniProt P31553); experiment: native gel or EMSA; blue native PAGE, 4–16.5% gradient gel, 5 µg purified protein per lane, in detergent solution

percent of the protein in the monomeric state (CaiT-M295E (E. coli)): > 80%
Substance: CaiT-M295E (from UniProt P31553 1-504) (natural protein)

Substance: CaiT (Escherichia coli K-12; D288A)
Km ([1]; mostly monomeric variant): 114.1 ± 17.9 µM
Vmax ([1]; mostly monomeric variant): 1.86 µmol/min/mg

Substance: CaiT (Escherichia coli K-12)
Km [1]: 45.3 ± 6.9 µM
Vmax [1]: 2.13 µmol/min/mg

percent of the protein in the monomeric state (CaiT-R299A (E. coli)): > 80%
Substance: CaiT-R299A (from UniProt P31553 1-504) (natural protein)

— article PMC6406002, “Comparison of the functional properties of trimeric and monomeric CaiT of Escherichia coli” (Scientific Reports, 2019)
